# From paper PMC6039487
# Assays:
# [1] = target: MC4R(L328Ter), expressed from mCherry-2A-MC4R (human) (UniProt P32245)
# [2] = target: MC4R(C319Ter), expressed from mCherry-2A-MC4R (human) (UniProt P32245)
# [3] = target: wild-type MC4R (melanocortin 4 receptor), expressed from mCherry-2A-MC4R (human) (UniProt P32245)
substance,measurement,setting,value
α-MSH (peptide),"EC50 of α-MSH induced cAMP production, pGloSensor luciferase cAMP assay in transfected HEK293 cells (dose-response, 10 min stimulation)",[1],3.3 nM
same,"EC50 of α-MSH induced cAMP production, pGloSensor luciferase cAMP assay in transfected HEK293 cells (dose-response, 10 min stimulation)",[2],2.7 nM
same,"EC50 of α-MSH induced cAMP production, pGloSensor luciferase cAMP assay in transfected HEK293 cells (dose-response, 10 min stimulation)",[3],2.5 nM
